“Also recorded” adds a separate entry of the source.
Tests used:
[1] = tested on: cyno-Axl (Axl receptor from cynomolgus monkey); assay: Biacore binding analysis on immobilized cyno-Axl; design: species or system Macaca fascicularis; conditions: 10 μg/mL, 25° C.
Method: The sequence of Axl receptor from cynomolgus monkey (Macaca fascicularis; SEQ ID NO.43) was retrieved from WO2009062690A1. Based on the sequence, recombinant extracellular domain of cyno-Axl was generated by transient expression in CHO cells as a fusion protein with human Fc. The recombinant cyno-Axl-Fc was purified to homogeneity using Protein A-Sepharose (GE Healthcare). The binding experiments were performed using Biacore 3000 instrument (GE Healthcare) at 25° C. The soluble recombinant antigens corresponding to human Axl (rhAxl-Fc chimera; R&D Systems, Cat. no. 154-AL) and cyno-Axl were immobilized on the surface of CM5 sensor chip using amine coupling at the surface density of 775 and 880 RU, respectively. The Biacore runs were performed in an automatic mode using Binding analysis wizard.
The sample containing either MAb 10C9, MAb 10G5 or human Axl-specific MAb 5F11 (control) at concentration 10 μg/mL in HBS-EP buffer (GE Healthcare) was injected over the surfaces with immobilized antigens at flow rate of 30 μL/min for 3 min (association) followed by 5 min dissociation.

[2] = tested on: MDA-MB-231 cells; assay: Treatment of established stellate-shaped 3D tumour masses; type: cell-based, human; conditions: MDA-MB-231, 72 hours, versus control IgG
Method: Effect of anti-Axl antibodies 10C9 and 10G5 on established 3D organotypic tumour masses. The developed 9-days old stellate-shaped 3D organoid masses of human mammary carcinoma cells (MDA-MB-231) were treated with either control IgG or anti-Axl antibodies 10C9 and 10G5 for 72 hours. Images were captured using bright field; arrows indicate apoptotic, degrading stellate-shaped cells.
MDA-MB-231 cells were grown on extracellular matrix and allowed to form the highly aggressive stellate shaped morphology. Stellate-shaped tumour masses were then treated with the control IgG and antibodies 10C9 and 10G5, as described in EXAMPLE 7.

[3] = molecular target: T1, Axl receptor protein (Homo sapiens, UniProt P30530); assay: Western blot analysis of Axl receptor protein expression after antibody treatment; type: cell-based; conditions: MDA-MB-231 cells, 100 μg/mL, 20 hrs, versus irrelevant IgG or MAb#3
T1 construct: endogenous in cells; host or cells: MDA-MB-231
Method: Western blot analysis illustrating effect of treatment with either antibodies of multikinase inhibitor Foretinib on Axl receptor expression. Highly aggressive human mammary carcinoma cells MDA-MB-231 were treated with either antibodies (irrelevant IgG control and anti-Axl MAbs 10C9, 10G5 and MAb#3) or Foretinib for […] before loading on SDS-PAA gel. The levels of actin protein were used as loading controls.
The expression of Axl receptor protein in MBA-MD-231 cells treated with different antibodies was examined by Western blot analysis. The cells were seeded in a 6-well plate at density of 5×10^5 cells per well and cultured overnight before treatment initiation. The cells were treated for 20 hrs in the presence of isotype control (mouse IgG2b), anti-Axl antibodies (10C9, 10G5 and MAb#3) at concentrations of 100 μg/mL or multikinase inhibitor Foretinib (targets Met, Ron, Axl, Tie-2, and VEGFR2) at a concentration of 0.5 μM followed by harvesting by centrifugation at 1,200 rpm for 5 min and washing with sterile PBS. The cells were collected by centrifugation and resuspended in NP40-lysis buffer followed by 30 min incubation on ice. The cell lysates were cleared by centrifugation (12,000 rpm, 4° C., 5 min) and the protein concentrations were determined using BCA protein assay. […]

[4] = tested on: Axl-positive breast cancer cell line MDA-MB-231; assay: Flow cytometry binding to Axl-positive MDA-MB-231 cells; type: cell-based, human; conditions: different antibody concentrations, MFI
Method: Different concentrations of mouse and chimeric antibodies were tested in flow cytometry for binding to triple-negative breast cancer cell line MDA-MB-231. The bound mouse and chimeric antibodies were detected with APC-conjugated donkey F(ab′)2 fragments specific for either mouse IgG (H+L), 1:500 dilution, or human IgG (H+L), 1:300 dilution, respectively (both from Jackson ImmunoResearch). The cell staining was measured using Accuri C6 flow cytometer (BD Biosciences). MFI, geometric mean fluorescence intensity.
The purified chimeric antibodies (>95% purity) were analysed for binding to Axl-positive breast cancer cell line MDA-MB-231 in flow cytometry. For comparison, the parental mouse MAbs 10C9 and 10G5 were used. For flow cytometry, the adherent cells in culture were washed with PBS, detached by treatment with trypsin (0.25%) for 1 min and hitting culture dish for full detachment. Trypsin was quenched by adding into the tissue flask the complete medium followed by washing the cells with PBS. During the washing steps, the cells were collected by centrifugation at 200 g for 5 min. The antibody was diluted for total concentration in PBS containing 0.02% bovine serum albumin (BSA). Cell staining was performed using 200 μL of cell suspension comprising 10^5 cells for 20 min at room temperature. The cell-bound antibodies were detected with APC-conjugated donkey anti-human or anti-mouse, respectively, IgG (H+L) F(ab′)2 fragments (Jackson ImmunoResearch). After two washing steps with PBS/0.02% BSA, the cells were resuspended in 200 μL and kept on ice before analysis on Accuri C6 flow cytometer (BD Biosciences).

Sequence of cyno-Axl (Axl receptor from cynomolgus monkey) (as listed by the source): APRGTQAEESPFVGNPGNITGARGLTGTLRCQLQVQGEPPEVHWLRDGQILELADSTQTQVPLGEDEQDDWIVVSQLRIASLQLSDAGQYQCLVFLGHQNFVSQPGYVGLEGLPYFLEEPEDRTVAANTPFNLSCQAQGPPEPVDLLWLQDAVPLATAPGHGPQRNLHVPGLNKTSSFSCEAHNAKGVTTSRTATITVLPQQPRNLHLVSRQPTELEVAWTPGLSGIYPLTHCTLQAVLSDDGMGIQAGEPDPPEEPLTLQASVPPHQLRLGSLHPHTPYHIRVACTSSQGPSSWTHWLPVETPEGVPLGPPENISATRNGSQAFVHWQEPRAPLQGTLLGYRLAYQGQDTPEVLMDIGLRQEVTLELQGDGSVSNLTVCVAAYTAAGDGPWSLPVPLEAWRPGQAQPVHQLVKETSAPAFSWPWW

binding to Axl from cynomolgus monkey ([1]; listed as 1009)	Molecule	binding to Axl from cynomolgus monkey [1]	effect on established stellate-shaped 3D tumour masses [2]	Axl protein level (Western blot) [3]	binding to MDA-MB-231 cells in flow cytometry [4]
bind strongly	10C9: mouse anti-Axl monoclonal antibody from hybridoma UT-10C9-B9, IgG2b; VH SEQ ID NO: 3, VL SEQ ID NO: 4 (antibody, listed as Mus musculus, V domains shown) VH: QVQLQQPGPELVKPGASVKISCKTSDYNFTRYYIHWVKQRPGQGLEWIGWIYPGTGDSKYNEKFKGRATLTADTSSSTAYMQLSSQTSEDSAVYFCARNGNYWYFDVWGAGTAVTVSS VL: DIVMTQAAPSGPVTPGESVSISCRSSKSLLHSNGNTYLYWFLQRPGQSPQLLIYRMSNLASGVPDRFSGSGSGTAFTLRISRVEAEDVGIYYCMQHREYPFTFGGGTKLEIK	strong and specific interaction	degradation of stellate patterns	significant reduction in the amount of Axl receptor protein	Dose-dependent binding
–	10G5: mouse anti-Axl monoclonal antibody from hybridoma WR-10G5-E5, IgG1; VH SEQ ID NO: 21, VL SEQ ID NO: 22 (antibody, listed as Mus musculus, V domains shown) VH: QVQLQQSGAELVRPGASVKLSCKASGYSFTDFYINWVRQRPGQGLEWIARIFPGGDNTYYNEKFKGKATLTAEESSSTAYIQLSSLTSEDSAVYFCARRGLYYAMDYWGQGISVTVSS VL: DVLMTQTPLSLPVSLGDQASISCRSSQSLVHSNGIPYLHWYLQKPGQSPKLLIYRVSNRFSGVPDRFSGSGSGTDFTLKISRVEAEDLGVYFCSQGTHVPPTFGGGTKLEIK	bind strongly; also recorded: strong and specific interaction	degradation of stellate patterns	significant reduction of Axl protein	–
–	c10G5: chimeric (mouse variable/human constant) IgG1 variant of antibody 10G5 (antibody, left off: a dimerising Fc or GST, chimeric (mouse variable/human constant) IgG1 variant of antibody 10G5) heavy: QVQLQQSGAELVRPGASVKLSCKASGYSFTDFYINWVRQRPGQGLEWIARIFPGGDNTYYNEKFKGKATLTAEESSSTAYIQLSSLTSEDSAVYFCARRGLYYAMDYWGQGISVTVSS light: DVLMTQTPLSLPVSLGDQASISCRSSQSLVHSNGIPYLHWYLQKPGQSPKLLIYRVSNRFSGVPDRFSGSGSGTDFTLKISRVEAEDLGVYFCSQGTHVPPTFGGGTKLEIK	–	–	–	Dose-dependent binding
